# Assay results: patent US20260001928A1 (CORTERIA PHARMACEUTICALS, priority 2022, published 2026)
# *1 amine or outer side, *2 acyl side, *3 side chain or, on linkers, in order; H or OH if unused. Where no end group is shown, it is not given here. Side-chain parts run from the residue outwards. [ ]: non-standard residue; d: D form. The star is where a group is joined. C18 diacid = O=C(O)CCCCCCCCCCCCCCCCC(=O)*; γGlu = O=C(O)[C@H](CCC(=O)[*:2])N[*:1]; NMeI = CC[C@H](C)[C@H](NC)C(=O)O; AEEA = NCCOCCOCC(=O)O; Aib = CC(C)(N)C(=O)O
# What was measured:
# [1] = target: T1, CRF1R receptor (UniProt P34998 24-415, limits assumed); assay: cell-based or functional assay
# T1 sequence (looked up): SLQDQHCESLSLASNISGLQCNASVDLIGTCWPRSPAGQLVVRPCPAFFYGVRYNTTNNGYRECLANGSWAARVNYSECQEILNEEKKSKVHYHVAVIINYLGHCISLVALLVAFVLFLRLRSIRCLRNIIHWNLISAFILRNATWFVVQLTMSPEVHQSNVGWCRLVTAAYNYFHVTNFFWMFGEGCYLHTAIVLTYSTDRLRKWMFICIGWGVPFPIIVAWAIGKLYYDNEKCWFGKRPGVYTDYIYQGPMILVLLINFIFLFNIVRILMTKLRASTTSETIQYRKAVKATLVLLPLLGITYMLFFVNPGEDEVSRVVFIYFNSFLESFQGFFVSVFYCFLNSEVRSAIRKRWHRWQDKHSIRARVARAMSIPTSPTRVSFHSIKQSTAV
# [2] = target: human corticotropin-releasing factor 2a (CRF2a receptor) (human), Q13324; assay: cell-based or functional assay
# human corticotropin-releasing factor 2a (CRF2a receptor) (human), Q13324, sequence (Q13324 20-411): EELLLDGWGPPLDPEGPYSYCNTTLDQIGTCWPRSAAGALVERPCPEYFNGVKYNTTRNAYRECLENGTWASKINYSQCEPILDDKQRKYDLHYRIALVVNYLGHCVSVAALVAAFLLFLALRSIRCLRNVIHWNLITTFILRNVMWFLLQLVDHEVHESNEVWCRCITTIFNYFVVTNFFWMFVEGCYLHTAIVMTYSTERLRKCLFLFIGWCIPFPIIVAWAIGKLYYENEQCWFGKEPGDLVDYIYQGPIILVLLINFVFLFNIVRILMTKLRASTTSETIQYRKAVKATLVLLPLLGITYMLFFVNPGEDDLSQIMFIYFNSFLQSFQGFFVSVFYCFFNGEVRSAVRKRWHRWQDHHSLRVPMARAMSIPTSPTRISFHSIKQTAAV
Binder,EC50 [1],Emax (% I) [1],EC50 [nM] (cAMP) [2]
[NMeI]VLSLD[dV]PIKLK([AEEA-AEEA-γGlu-γGlu-C18 diacid])QILLKQERQKKQREQAEKN[Aib]QILEQV-NH2 (N-terminus assumed; SMILES CC[C@H](C)[C@H](NC)C(=O)N[C@H](C(=O)N[C@@H](CC(C)C)C(=O)N[C@@H](CO)C(=O)N[C@@H](CC(C)C)C(=O)N[C@@H](CC(=O)O)C(=O)N[C@@H](C(=O)N1CCC[C@H]1C(=O)N[C@H](C(=O)N[C@@H](CCCCN)C(=O)N[C@@H](CC(C)C)C(=O)N[C@@H](CCCCNC(=O)COCCOCCNC(=O)COCCOCCNC(=O)CC[C@H](NC(=O)CC[C@H](NC(=O)CCCCCCCCCCCCCCCCC(=O)O)C(=O)O)C(=O)O)C(=O)N[C@@H](CCC(N)=O)C(=O)N[C@H](C(=O)N[C@@H](CC(C)C)C(=O)N[C@@H](CC(C)C)C(=O)N[C@@H](CCCCN)C(=O)N[C@@H](CCC(N)=O)C(=O)N[C@@H](CCC(=O)O)C(=O)N[C@@H](CCCNC(=N)N)C(=O)N[C@@H](CCC(N)=O)C(=O)N[C@@H](CCCCN)C(=O)N[C@@H](CCCCN)C(=O)N[C@@H](CCC(N)=O)C(=O)N[C@@H](CCCNC(=N)N)C(=O)N[C@@H](CCC(=O)O)C(=O)N[C@@H](CCC(N)=O)C(=O)N[C@@H](C)C(=O)N[C@@H](CCC(=O)O)C(=O)N[C@@H](CCCCN)C(=O)N[C@@H](CC(N)=O)C(=O)NC(C)(C)C(=O)N[C@@H](CCC(N)=O)C(=O)N[C@H](C(=O)N[C@@H](CC(C)C)C(=O)N[C@@H](CCC(=O)O)C(=O)N[C@@H](CCC(N)=O)C(=O)N[C@H](C(N)=O)C(C)C)[C@@H](C)CC)[C@@H](C)CC)[C@@H](C)CC)C(C)C)C(C)C) [SEQ ID NO 31],> 250 nM,14%,0.23 nM
Ac-IVLSLD[dV]PIKLK([AEEA-AEEA-γGlu-γGlu-C18 diacid])QILLKQERQKKQREQAEKN[Aib]QILEQV-NH2 (SMILES CC[C@H](C)[C@H](NC(C)=O)C(=O)N[C@H](C(=O)N[C@@H](CC(C)C)C(=O)N[C@@H](CO)C(=O)N[C@@H](CC(C)C)C(=O)N[C@@H](CC(=O)O)C(=O)N[C@@H](C(=O)N1CCC[C@H]1C(=O)N[C@H](C(=O)N[C@@H](CCCCN)C(=O)N[C@@H](CC(C)C)C(=O)N[C@@H](CCCCNC(=O)COCCOCCNC(=O)COCCOCCNC(=O)CC[C@H](NC(=O)CC[C@H](NC(=O)CCCCCCCCCCCCCCCCC(=O)O)C(=O)O)C(=O)O)C(=O)N[C@@H](CCC(N)=O)C(=O)N[C@H](C(=O)N[C@@H](CC(C)C)C(=O)N[C@@H](CC(C)C)C(=O)N[C@@H](CCCCN)C(=O)N[C@@H](CCC(N)=O)C(=O)N[C@@H](CCC(=O)O)C(=O)N[C@@H](CCCNC(=N)N)C(=O)N[C@@H](CCC(N)=O)C(=O)N[C@@H](CCCCN)C(=O)N[C@@H](CCCCN)C(=O)N[C@@H](CCC(N)=O)C(=O)N[C@@H](CCCNC(=N)N)C(=O)N[C@@H](CCC(=O)O)C(=O)N[C@@H](CCC(N)=O)C(=O)N[C@@H](C)C(=O)N[C@@H](CCC(=O)O)C(=O)N[C@@H](CCCCN)C(=O)N[C@@H](CC(N)=O)C(=O)NC(C)(C)C(=O)N[C@@H](CCC(N)=O)C(=O)N[C@H](C(=O)N[C@@H](CC(C)C)C(=O)N[C@@H](CCC(=O)O)C(=O)N[C@@H](CCC(N)=O)C(=O)N[C@H](C(N)=O)C(C)C)[C@@H](C)CC)[C@@H](C)CC)[C@@H](C)CC)C(C)C)C(C)C) [SEQ ID NO 30],> 250 nM,15%,0.29 nM
